We go through 1 substance from paper PMC4833862.

This assay deals with CthACC (full-length Chaetomium thermophilum acetyl-CoA carboxylase, 1-2,297) (Chaetomium thermophilum). As to the kind of experiment: SAXS; 30 mM MOPS pH 7, 200 mM ammonium sulfate, 5% glycerol, 10 mM dithiothreitol; 2.5, 5 and 10 mg/ml, extrapolated to zero concentration.

Usually stoichiometry N stands for the number of molecules, sites or subunits per partner or assembly. Take “CthACC (full-length Chaetomium thermophilum acetyl-CoA carboxylase, 1-2,297) (enzyme)”: the stoichiometry N is 2.
